Consider one molecule from article PMC9060471, “Oleic acid is an endogenous ligand of TLX/NR2E1 that triggers hippocampal neurogenesis” (Proceedings of the National Academy of Sciences of the …, 2022).

The experiment deals with T1, 6xHis-TLX ligand-binding domain (UniProt Q9Y466 155-385).
T1 construct: Construct limits, species and expression host should stand in the SI Appendix (methods); also called TLX LBD; NR2E1; source: purified
As to the kind of experiment: AlphaScreen or HTRF; ALPHA competition experiments in the presence of saturating 18:1ω9. As to conditions: both partners purified. (Alpha assays give light when donor and acceptor beads are brought close together.)

T1 sequence (Q9Y466 155-385): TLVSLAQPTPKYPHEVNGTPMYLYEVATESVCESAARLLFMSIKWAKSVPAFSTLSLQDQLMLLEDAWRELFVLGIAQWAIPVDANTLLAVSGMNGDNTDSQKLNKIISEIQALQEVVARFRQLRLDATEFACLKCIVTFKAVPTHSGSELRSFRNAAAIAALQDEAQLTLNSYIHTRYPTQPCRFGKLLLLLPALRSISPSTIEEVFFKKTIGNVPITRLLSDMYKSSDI

B1: receptor-interaction domain from NCOA3 (domain or fragment, UniProt Q9Y6Q9 621-821, looked up)
chain: LLQLLTCSSDDRGHSSLTNSPLDSSCKESSVSVTSPSGVSSSTSGGVSSTSNMHGSLLQEKHRILHKLLQNGNSPAEVAKITAEATGKDTSSITSCGDGNVVKQEQLSPKKKENNALLRYLLDRDDPSDALSKELQPQVEGVDNKMSQCTSSTIPSSSQEKDPKIKTETSEEGSGDLDNLDAILGDLTSSDFYNNSISSNG
notes: The methods name an AlphaScreen GST Detection Kit, so a GST fusion may have been used somewhere; see SI Appendix; also called SRC3
As for B1, the “EC50 with 18:1ω9” value is 3.3 µM.
